B1: Catabolite Activator Protein (CAP) of Escherichia coli, wild-type (natural protein, UniProt P0ACJ8 1-210, looked up)
chain: MVLGKPQTDPTLEWFLSHCHIHKYPSKSTLIHQGEKAETLYYIVKGSVAVLIKDEEGKEMILSYLNQGDFIGELGLFEEGQERSAWVRAKTACEVAEISYKKFRQLIQVNPDILMRLSAQMARRLQVTSEKVGNLAFLDVTGRIAQTLLNLAKQPDAMTHPDGMQIKITRQEIGQIVGCSRETVGRILKMLEDQNLISAHGKTIVVYGTR
notes: also called CAP wild-type
B2: CAP V140L (natural protein, Escherichia coli, UniProt P0ACJ8 1-210, looked up)
chain: MVLGKPQTDPTLEWFLSHCHIHKYPSKSTLIHQGEKAETLYYIVKGSVAVLIKDEEGKEMILSYLNQGDFIGELGLFEEGQERSAWVRAKTACEVAEISYKKFRQLIQVNPDILMRLSAQMARRLQVTSEKVGNLAFLDLTGRIAQTLLNLAKQPDAMTHPDGMQIKITRQEIGQIVGCSRETVGRILKMLEDQNLISAHGKTIVVYGTR
B3: CAP H160L (natural protein, Escherichia coli, UniProt P0ACJ8 1-210, looked up)
chain: MVLGKPQTDPTLEWFLSHCHIHKYPSKSTLIHQGEKAETLYYIVKGSVAVLIKDEEGKEMILSYLNQGDFIGELGLFEEGQERSAWVRAKTACEVAEISYKKFRQLIQVNPDILMRLSAQMARRLQVTSEKVGNLAFLDVTGRIAQTLLNLAKQPDAMTLPDGMQIKITRQEIGQIVGCSRETVGRILKMLEDQNLISAHGKTIVVYGTR
B4: CAP V132L (natural protein, Escherichia coli, UniProt P0ACJ8 1-210, looked up)
chain: MVLGKPQTDPTLEWFLSHCHIHKYPSKSTLIHQGEKAETLYYIVKGSVAVLIKDEEGKEMILSYLNQGDFIGELGLFEEGQERSAWVRAKTACEVAEISYKKFRQLIQVNPDILMRLSAQMARRLQVTSEKLGNLAFLDVTGRIAQTLLNLAKQPDAMTHPDGMQIKITRQEIGQIVGCSRETVGRILKMLEDQNLISAHGKTIVVYGTR
B5: CAP V140A (natural protein, Escherichia coli, UniProt P0ACJ8 1-210, looked up)
chain: MVLGKPQTDPTLEWFLSHCHIHKYPSKSTLIHQGEKAETLYYIVKGSVAVLIKDEEGKEMILSYLNQGDFIGELGLFEEGQERSAWVRAKTACEVAEISYKKFRQLIQVNPDILMRLSAQMARRLQVTSEKVGNLAFLDATGRIAQTLLNLAKQPDAMTHPDGMQIKITRQEIGQIVGCSRETVGRILKMLEDQNLISAHGKTIVVYGTR
B6: CAP V132A (natural protein, Escherichia coli, UniProt P0ACJ8 1-210, looked up)
chain: MVLGKPQTDPTLEWFLSHCHIHKYPSKSTLIHQGEKAETLYYIVKGSVAVLIKDEEGKEMILSYLNQGDFIGELGLFEEGQERSAWVRAKTACEVAEISYKKFRQLIQVNPDILMRLSAQMARRLQVTSEKAGNLAFLDVTGRIAQTLLNLAKQPDAMTHPDGMQIKITRQEIGQIVGCSRETVGRILKMLEDQNLISAHGKTIVVYGTR

Molecular target: the molecule itself
Assay: crystal structure; homodimer in crystals grown at pH 6.5 with 7-10% PEG 3350, 15-20% 2-methyl-2,4-pentanediol and 2 mM cAMP; cAMP-bound protein

Binding result, binds:
B1, B2, B3, B4, B5, B6

Source: publication PMC3769225, “Modulation of Global Low-Frequency Motions Underlies Allosteric Regulation: Demonstration in CRP/FNR Family Transcription Factors” (PLoS Biology, 2013)
